Results on six molecules are retold here after article doi:10.1101/798371 (bioRxiv, 2019).

By stoichiometry N is commonly meant a count of units in the complex or per binding partner.

“And” between values parts separate entries of the source, which are not always exact repeats. Identical values can stand only once. Like-named read-outs stand apart in the source and are kept apart here.

B3: Tom40 (natural protein, S. cerevisiae, UniProt P23644 1-387, looked up)
chain: MSAPTPLAEASQIPTIPALSPLTAKQSKGNFFSSNPISSFVVDTYKQLHSHRQSLELVNPGTVENLNKEVSRDVFLSQYFFTGLRADLNKAFSMNPAFQTSHTFSIGSQALPKYAFSALFANDNLFAQGNIDNDLSVSGRLNYGWDKKNISKVNLQISDGQPTMCQLEQDYQASDFSVNVKTLNPSFSEKGEFTGVAVASFLQSVTPQLALGLETLYSRTDGSAPGDAGVSYLTRYVSKKQDWIFSGQLQANGALIASLWRKVAQNVEAGIETTLQAGMVPITDPLMGTPIGIQPTVEGSTTIGAKYEYRQSVYRGTLDSNGKVACFLERKVLPTLSVLFCGEIDHFKNDTKIGCGLQFETAGNQELLMLQQGLDADGNPLQALPQL
B5: Tom22 (natural protein, S. cerevisiae, UniProt P49334 1-152, looked up)
chain: MVELTEIKDDVVQLDEPQFSRNQAIVEEKASATNNDVVDDEDDSDSDFEDEFDENETLLDRIVALKDIVPPGKRQTISNFFGFTSSFVRNAFTKSGNLAWTLTTTALLLGVPLSLSILAEQQLIEMEKTFDLQSDANNILAQGEKDAAATAN

The target in data set [1] is B3. Description: cryo-EM structure.
Data set [2] deals with the molecule itself. Briefly: cryo-EM structure.
The target of data set [3] is B5. Briefly: cryo-EM structure.
Data set [4] deals with the molecule itself. Description: cryo-EM structure. This is another data set of the same source.
Data set [5] concerns the molecule itself. Description: SEC. (Size exclusion chromatography separates by hydrodynamic size, large species first.)
Data set [6] deals with B3. Briefly: cryo-EM structure. This is another data set of the same source.

B1: Tom7 (natural protein, S. cerevisiae, UniProt P53507 1-60, looked up)
chain: MSFLPSFILSDESKERISKILTLTHNVAHYGWIPFVLYLGWAHTSNRPNFLNLLSPLPSV
As for B1, the binding result in data set [1] is recorded as “binds”.

B2: Tom6 (natural protein, S. cerevisiae, UniProt P33448 1-61, looked up)
chain: MDGMFAMPGAAAGAASPQQPKSRFQAFKESPLYTIALNGAFFVAGVAFIQSPLMDMLAPQL
As to B2, the binding result in data set [1] and in data set [2] was “binds” in each case.
Regarding MFGLPQQEVSEEEKRAHQEQTEKTLKQAAYVAAFLWVSPMIWHLVKKQWK (natural protein, S. cerevisiae, UniProt P80967 1-50, looked up) [Tom5], the binding result in data set [1] and in data set [3] was “binds” in each case.
Turning to B3, the binding result in data set [4] was “binds”.

B4: core TOM complex (monomeric unit: Tom40, Tom22, Tom5, Tom6, Tom7) (complex, S. cerevisiae)
chain 1: MSAPTPLAEASQIPTIPALSPLTAKQSKGNFFSSNPISSFVVDTYKQLHSHRQSLELVNPGTVENLNKEVSRDVFLSQYFFTGLRADLNKAFSMNPAFQTSHTFSIGSQALPKYAFSALFANDNLFAQGNIDNDLSVSGRLNYGWDKKNISKVNLQISDGQPTMCQLEQDYQASDFSVNVKTLNPSFSEKGEFTGVAVASFLQSVTPQLALGLETLYSRTDGSAPGDAGVSYLTRYVSKKQDWIFSGQLQANGALIASLWRKVAQNVEAGIETTLQAGMVPITDPLMGTPIGIQPTVEGSTTIGAKYEYRQSVYRGTLDSNGKVACFLERKVLPTLSVLFCGEIDHFKNDTKIGCGLQFETAGNQELLMLQQGLDADGNPLQALPQL
chain 2: MVELTEIKDDVVQLDEPQFSRNQAIVEEKASATNNDVVDDEDDSDSDFEDEFDENETLLDRIVALKDIVPPGKRQTISNFFGFTSSFVRNAFTKSGNLAWTLTTTALLLGVPLSLSILAEQQLIEMEKTFDLQSDANNILAQGEKDAAATAN
chain 3: MFGLPQQEVSEEEKRAHQEQTEKTLKQAAYVAAFLWVSPMIWHLVKKQWK
chain 4: MDGMFAMPGAAAGAASPQQPKSRFQAFKESPLYTIALNGAFFVAGVAFIQSPLMDMLAPQL
chain 5: MSFLPSFILSDESKERISKILTLTHNVAHYGWIPFVLYLGWAHTSNRPNFLNLLSPLPSV
B4: the “stoichiometry N” value is 4 and 3 in data set [2]; 2 in data set [5].
B5: the binding result in data set [6] is given as “binds”.
